In US20110243928A1:

Key:
16 mer peptide 40 = target: T1, 16 mer peptide 40; test: 16 mer peptide ELISA
T1 sequence (peptide, N-terminal biotin; C-terminal amide): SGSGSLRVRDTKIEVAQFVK

16 mer peptide 41 = test: 16 mer peptide ELISA
Sequence of 16 mer peptide 41 (peptide, as listed by the source limits assumed): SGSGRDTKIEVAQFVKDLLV

absorbance at 490 nm (16 mer peptide 40): 0.06 A490
absorbance at 490 nm (16 mer peptide 41): 0.058 A490
B1: monoclonal antibody 6A1 (antibody, IgG1, V domains shown)
VH: EIQLQQSVAELVRPGASVRLSCTASGFYIKDTYMHWVIQRPEQGLEWIGTIDPANGNTKYVPKFQGKATITADTSSNTAYLRLSSLTSEDTAIYYCARSIYDDYHYDDYYAMDYWGQGTSVTVSS
VL: DVLMTQTPLSLPVSLGDQASISCRSSQNIVHINGNTYLEWYLQKPGQSPKLLIYKISDRFSGVPDRFSGSGSGTDFTLKISRVEAEDLGVYYCFQGSHVPWTFGGGTKLEIK
